Measurements published in article PMC3834315.

Target: T1, C-terminally hexa-histidine (His6)-tagged VapC10 (toxin, PIN-domain protein, slr1767) of Synechocystis sp. … (Synechocystis sp. PCC 6803, UniProt P73045 1-112)
T1 construct: also called VapC10-His6; VapC-His6; not shown: His6, C-terminal, kept
T1 sequence (looked up): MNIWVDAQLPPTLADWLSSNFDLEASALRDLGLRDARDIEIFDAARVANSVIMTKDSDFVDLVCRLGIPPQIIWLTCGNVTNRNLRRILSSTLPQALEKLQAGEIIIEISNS
Assay: pull-down
Details: partners not purified

B1: VapB10 (antitoxin, COG2442-domain protein, ssr2962) of Synechocystis sp. PCC 6803 (natural protein, UniProt P73044 1-74, looked up)
chain: MNSLLSRITQTPGQCGGRPCIRGMRIRVSDILEMLAENVSTSEILEDFPDLEMADIQACLVFAARRTDFSRLTA
notes: source: E. coli BL21(DE3)(pJS653), co-expressed with VapC10-His6, in cleared lysate
**Q.** B1 was tested. Which “stoichiometry N” value did it give?
**A.** ~1 VapB10 per VapC10-His6
